Measurements: publication doi:10.1101/2024.06.06.597810 (bioRxiv, 2024)

Target: T1, SARS-CoV-2 spike stem helix peptide (residues 1146-1159), displayed on yeast (SARS-CoV-2)
T1 chain: DSFKEELDKYFKNH
Experiment: flow cytometry on cells
Details: partners not purified

B1: S2P6 in single-chain variable fragment (scFv) format (scFv, V domains shown)
VH: EVQLVQSGAEVKKPGASVKVSCKASGYTFTSQYMHWVRQAPGQGLEWIGIINPSGVHTSYAQKFQGRVTLTRDTSTSTLYMELSSLRSEDTAVYYCARGSPKGAFDYWGQGTLVTVSS
VL: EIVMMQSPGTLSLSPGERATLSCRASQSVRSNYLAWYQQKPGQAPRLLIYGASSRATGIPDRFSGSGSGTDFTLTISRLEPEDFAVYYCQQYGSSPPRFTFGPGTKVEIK
notes: not shown: HA, C-terminal, kept
binding result: binds
